Numbering of substitutions follows the chain as printed.
T1: human PVRIG on FlpinCHO-PVRIG cells (human, UniProt Q6DKI7 41-326)
T1 construct: whole, on cells
T1 sequence (looked up): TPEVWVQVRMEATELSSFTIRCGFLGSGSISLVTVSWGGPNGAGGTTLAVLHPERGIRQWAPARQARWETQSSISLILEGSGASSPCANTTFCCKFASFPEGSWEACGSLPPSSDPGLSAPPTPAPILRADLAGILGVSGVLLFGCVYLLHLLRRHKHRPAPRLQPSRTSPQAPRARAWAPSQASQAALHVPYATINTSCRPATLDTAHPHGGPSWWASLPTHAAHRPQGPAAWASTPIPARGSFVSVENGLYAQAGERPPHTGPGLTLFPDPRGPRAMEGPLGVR

T2: cynomolgus monkey PVRIG on FlpinCHO-cyno PVRIG cells (cynomolgus monkey, UniProt A0A2K5WVV8 41-322)
T2 construct: whole, on cells
T2 sequence: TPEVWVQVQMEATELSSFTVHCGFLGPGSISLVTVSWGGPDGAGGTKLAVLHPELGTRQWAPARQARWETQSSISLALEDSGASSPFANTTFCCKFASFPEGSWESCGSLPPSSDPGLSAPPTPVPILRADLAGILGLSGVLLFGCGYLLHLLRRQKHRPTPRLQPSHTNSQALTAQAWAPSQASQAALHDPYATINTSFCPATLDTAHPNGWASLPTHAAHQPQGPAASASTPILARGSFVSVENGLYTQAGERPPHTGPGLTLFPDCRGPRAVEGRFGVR

B1: PVRIG-A50 (Fc fusion)
chain: EVQLVESGGGLVQPGGSLRLSCAASGFTFSYYDMSWVRQAPGKGLEWVSTINSNGGRTSYVDSVKGRFTISRDNTKNTLYLQMNSLKPEDTAVYYCVEGDPHNFGLENLSLRDFGSWGQGTQVTVSS
notes: heavy chain antibody VHH-hinge-CH2-CH3, human IgG1 constant part; also called PVRIG-50; not shown: human IgG1 hinge-CH2-CH3
B2: PVRIG-A50-H1 (Fc fusion)
chain: B1 chain with T75S, K87R, P88A, Q122M
notes: humanized variant of PVRIG-A50; also called A50.VH1; not shown: constant part not restated for the humanized forms; parents are VHH-hinge-CH2-CH3 of human IgG1; detected by anti-human
B3: PVRIG-A50-H1d (Fc fusion)
chain: B1 chain with T75S, K87R, P88A, N108S, Q122M
notes: humanized variant of PVRIG-A50; also called A50.VH1d; not shown: constant part not restated for the humanized forms; parents are VHH-hinge-CH2-CH3 of human IgG1; detected by anti-human
B4: PVRIG-A50-H1c (Fc fusion)
chain: B1 chain with N54D, T75S, K87R, P88A, S110A, Q122M
notes: humanized variant of PVRIG-A50; also called A50.VH1c; not shown: constant part not restated for the humanized forms; parents are VHH-hinge-CH2-CH3 of human IgG1; detected by anti-human
B5: PVRIG-A50-H1b (Fc fusion)
chain: B1 chain with N54D, T75S, K87R, P88A, N108S, Q122M
notes: humanized variant of PVRIG-A50; also called A50.VH1b; not shown: constant part not restated for the humanized forms; parents are VHH-hinge-CH2-CH3 of human IgG1; detected by anti-human
B6: PVRIG-A50-H2a (Fc fusion)
chain: B1 chain with G55A, K87R, P88A, N108S, Q122M
notes: humanized variant of PVRIG-A50; also called A50.VH2a; not shown: constant part not restated for the humanized forms; parents are VHH-hinge-CH2-CH3 of human IgG1; detected by anti-human
B7: PVRIG-A50-H1a (Fc fusion)
chain: B1 chain with N54D, T75S, K87R, P88A, Q122M
notes: humanized variant of PVRIG-A50; also called A50.VH1a; not shown: constant part not restated for the humanized forms; parents are VHH-hinge-CH2-CH3 of human IgG1; detected by anti-human
B8: PVRIG-A50-H1e (Fc fusion)
chain: B1 chain with G55A, T75S, K87R, P88A, N108S, Q122M
notes: humanized variant of PVRIG-A50; also called VH1e; not shown: constant part not restated for the humanized forms; parents are VHH-hinge-CH2-CH3 of human IgG1; detected by anti-human
B9: PVRIG-A118 (Fc fusion)
chain: QVQLVESGGGLVQAGGSLRLSCAASETYFDLYVMGWYRQAPGKDRELVATITYTGSIKIVDSVKDRFTISRGDAKNTVSLQMSSLKPEDTAVYFCNADPSGLGRKVYWGQGTQVTVSS
notes: heavy chain antibody VHH-hinge-CH2-CH3, human IgG1 constant part; not shown: human IgG1 hinge-CH2-CH3
B10: PVRIG-A118-H7 (Fc fusion)
chain: EVQLVESGGGLVQPGGSLRLSCAASETYFDLYVMGWYRQAPGKDRELVATITYTGSIKYVDSVKGRFTISRGDAKNSLYLQMNSLRAEDTAVYFCNADPSGLGRKVYWGQGTMVTVSS
notes: humanized variant of PVRIG-A118; also called A118.VH7; not shown: constant part not restated for the humanized forms; parents are VHH-hinge-CH2-CH3 of human IgG1; detected by anti-human
B11: PVRIG-A118-H6 (Fc fusion)
chain: B10 chain with Y59I, F94Y
notes: humanized variant of PVRIG-A118; also called A118.VH6; not shown: constant part not restated for the humanized forms; parents are VHH-hinge-CH2-CH3 of human IgG1; detected by anti-human
B12: PVRIG-A118-H4 (Fc fusion)
chain: B10 chain with Y79S, F94Y
notes: humanized variant of PVRIG-A118; also called A118.VH4; not shown: constant part not restated for the humanized forms; parents are VHH-hinge-CH2-CH3 of human IgG1; detected by anti-human
B13: PVRIG-A118-H5 (Fc fusion)
chain: B10 chain with L78V, F94Y
notes: humanized variant of PVRIG-A118; also called A118.VH5; not shown: constant part not restated for the humanized forms; parents are VHH-hinge-CH2-CH3 of human IgG1; detected by anti-human
B14: PVRIG-A105 (Fc fusion)
chain: EVQLVESGGGLVQAGGSLRLSCAASGRTFDRHTMTWFRQAPGKEREFVATASRIPGDTYYSHSVKGRFTISRDNAKNTVYLQLNNLKPEDTAVYYCAATSAYCSEVDCYEKGSWYDNWGQGIQVTVSS
notes: as for B9
B15: PVRIG-A105-H1 (Fc fusion)
chain: EVQLVESGGGLVQPGGSLRLSCAASGRTFDRHTMSWFRQAPGKEREFVATASRIPGDTYYVDSVKGRFTISRDNAKNSLYLQMNSLRAEDTAVYYCAATSAYCSEVDCYEKGSWYDNWGQGTMVTVSS
notes: humanized variant of PVRIG-A105; also called A105.VH1; not shown: constant part not restated for the humanized forms; parents are VHH-hinge-CH2-CH3 of human IgG1; detected by anti-human
B16: PVRIG-A105-H4 (Fc fusion)
chain: B15 chain with S35T, V61S, D62H
notes: humanized variant of PVRIG-A105; also called A105.VH4; not shown: constant part not restated for the humanized forms; parents are VHH-hinge-CH2-CH3 of human IgG1; detected by anti-human
B17: PVRIG-A105-H3 (Fc fusion)
chain: B15 chain with S35T, L79V
notes: humanized variant of PVRIG-A105; also called A105.VH3; not shown: constant part not restated for the humanized forms; parents are VHH-hinge-CH2-CH3 of human IgG1; detected by anti-human

Target: T1, human PVRIG on FlpinCHO-PVRIG cells
Test: FACS, FlpinCHO-PVRIG cells
Description: (§1) The Ham's F12 (Gibico, 21127-022) complete medium containing 10% FBS was then added to terminate the digestion and acquire cell suspension. After counting with a cell counter (Beckman Coulter, Vi-CELL), an appropriate amount of cell suspension was centrifuged at 350×g to remove the supernatant, washed twice with PBS, stained with Zombie violet (Biolegend, 423114) and incubated at room temperature for 20 minutes. After incubation, the cells were added with staining buffer (2% FBS+PBS) to stop staining, centrifuged at 350×g to remove the supernatant, washed twice and resuspended with staining buffer to a density of 2×10⁶ cells/mL. The cells were plated into a 96-well plate (50 μL of cell suspension per well) for further use. The antibodies were diluted from the highest concentration of 46 nM (two-fold concentration) with staining buffer by 3.3-fold serial dilution. The diluted antibodies were added to the well containing 50 μL of cell suspension. The plate was placed on a microplate shaker at 400 rpm for 1 minute to fully mix the antibodies and cells, and then incubated at 4° C. for 30 minutes. After the incubation, the cells were washed twice with staining buffer (200 μL per well) and centrifuged at 350×g for 5 minutes to discard the supernatant. The PE goat anti-human IgG Fc antibody (ebioscience, 12-4998-82) was diluted 250 times with staining buffer, added into the washed wells (100 μL per well), mixed well, and stained at 4° C. for 30 minutes. After staining, the cells were washed twice with staining buffer, finally resuspended with 200 μL staining buffer and analyzed by flow cytometry (BD, Canto II). The stronger the signal, the stronger the ability of the antibodies binds to PVRIG. An antibody binding curve was drawn with concentration of antibodies as the abscissa and the corresponding Mean Fluorescence Intensity (MFI) as the ordinate. The AUC value of the curve was calculated by using a Four Parameter Logistic Fit (GraphPadPrism9). The stronger the AUC value, the stronger the ability of the antibodies binds to FlpinCHO-PVRIG and FlpinCHO-cyno PVRIG. […] The binding activity of the antibodies was normalized to the positive control COM701-hIgG1 and SRF813-hIgG1.

| AUC % to COM701-hIgG1 [%] | AUC % to SRF813-hIgG1 [%] | AUC % to parental Ab [%] | Binder |
| --- | --- | --- | --- |
| 73.4 | 130 | 100 | B1 |
| 74.4 | 132 | 101 | B2 |
| 63.1 | 112 | 85.9 | B3 |
| 69.2 | 122 | 94.2 | B4 |
| 60.5 | 107 | 82.5 | B5 |
| 61.9 | 110 | 84.4 | B6 |
| 70.4 | 125 | 96 | B7 |
| 60.3 | 107 | 82.2 | B8 |
| 136 | 191 | 100 | B9 |
| 126 | 177 | 92.7 | B10 |
| 129 | 180 | 94.2 | B11 |
| 132 | 185 | 97 | B12 |
| 128 | 179 | 93.9 | B13 |
| 124 | 186 | 100 | B14 |
| 123 | 185 | 99.1 | B15 |
| 115 | 174 | 93.1 | B16 |
| 125 | 189 | 101 | B17 |

Target: T2, cynomolgus monkey PVRIG on …
Test: FACS, FlpinCHO-cyno PVRIG cells
Description: as §1, with “The” for “The Ham's F12 (Gibico, 21127-022) complete medium containing 10% FBS was then added to terminate the digestion and acquire cell suspension. After counting with a cell counter (Beckman Coulter, Vi-CELL), an appropriate amount of cell suspension was centrifuged at 350×g to remove the supernatant, washed twice with PBS, stained with Zombie violet (Biolegend, 423114) and incubated at room temperature for 20 minutes. After incubation, the cells were added with staining buffer (2% FBS+PBS) to stop staining, centrifuged at 350×g to remove the supernatant, washed twice and resuspended with staining buffer to a density of 2×10⁶ cells/mL. The cells were plated into a 96-well plate (50 μL of cell suspension per well) for further use. The”, “SRF813-hIgG1. The higher the percentage value, the stronger the binding ability of the antibodies.” for “SRF813-hIgG1.”
The methods refer to Example 19. The stronger the AUC value, the stronger the ability of the humanized antibodies binds to FlpinCHO-human/cyno PVRIG.

| AUC % to COM701-hIgG1 [%] | AUC % to SRF813-hIgG1 [%] | AUC % to parental Ab [%] | Binder |
| --- | --- | --- | --- |
| 47.1 | 57.8 | 100 | B1 |
| 45.2 | 55.5 | 96 | B2 |
| 48.6 | 59.7 | 103 | B3 |
| 38.8 | 47.6 | 82.5 | B4 |
| 34.4 | 42.2 | 73.1 | B5 |
| 42.4 | 52.1 | 90.2 | B6 |
| 40.7 | 50 | 86.5 | B7 |
| 43.3 | 53.2 | 92 | B8 |
| 62.4 | 76.1 | 100 | B9 |
| 19.7 | 24 | 31.6 | B10 |
| 19.9 | 24.2 | 31.8 | B11 |
| 21.3 | 26 | 34.2 | B12 |
| 21.8 | 26.6 | 35 | B13 |
| 87.5 | 108 | 100 | B14 |
| 81.3 | 101 | 93 | B15 |
| 80.3 | 99.6 | 91.8 | B16 |
| 86.4 | 107 | 98.8 | B17 |

Source: patent publication US20240343803A1 (SHANDONG SIMCERE BIOPHARMACEUTICAL, published 2024)
